T1: Link N (human Link N, DHLSDNYTLDHDRAIH)
T1 sequence: DHLSDNYTLDHDRAIH

B1: ADAMTS 4 (enzyme, UniProt O75173 213-837, looked up, species assumed)
A disintegrin and metalloproteinase with thrombospondin motifs 4: FASLSRFVETLVVADDKMAAFHGAGLKRYLLTVMAAAAKAFKHPSIRNPVSLVVTRLVILGSGEEGPQVGPSAAQTLRSFCAWQRGLNTPEDSDPDHFDTAILFTRQDLCGVSTCDTLGMADVGTVCDPARSCAIVEDDGLQSAFTAAHELGHVFNMLHDNSKPCISLNGPLSTSRHVMAPVMAHVDPEEPWSPCSARFITDFLDNGYGHCLLDKPEAPLHLPVTFPGKDYDADRQCQLTFGPDSRHCPQLPPPCAALWCSGHLNGHAMCQTKHSPWADGTPCGPAQACMGGRCLHMDQLQDFNIPQAGGWGPWGPWGDCSRTCGGGVQFSSRDCTRPVPRNGGKYCEGRRTRFRSCNTEDCPTGSALTFREEQCAAYNHRTDLFKSFPGPMDWVPRYTGVAPQDQCKLTCQAQALGYYYVLEPRVVDGTPCSPDSSSVCVQGRCIHAGCDRIIGSKKKFDKCMVCGGDGSGCSKQSGSFRKFRYGYNNVVTIPAGATHILVRQQGNPGHRSIYLALKLPDGSYALNGEYTLMPSPTDVVLPGAVSLRYSGATAASETLSGHGPLAQPLTLQVLVAGNPQDTRLRYSFFVPRPTPSTPRPTPQDWLHRRAQILEILRRRPWAGRK
B2: MMP 7 (enzyme, UniProt P09237 95-267, looked up, species assumed)
Matrilysin: YSLFPNSPKWTSKVVTYRIVSYTRDLPHITVDRLVSKALNMWGKEIPLHFRKVVWGTADIMIGFARGAHGDSYPFDGPGNTLAHAFAPGTGLGGDAHFDEDERWTDGSSLGINFLYAATHELGHSLGMGHSSDPNAVMYPTYGNGDPQNFKLSQDDIKGIQKLYGKRSNSRKK
B3: cathepsin K (enzyme, UniProt P43235 115-329, looked up, species assumed)
Cathepsin K: APDSVDYRKKGYVTPVKNQGQCGSCWAFSSVGALEGQLKKKTGKLLNLSPQNLVDCVSENDGCGGGYMTNAFQYVQKNRGIDSEDAYPYVGQEESCMYNPTGKAAKCRGYREIPEGNEKALKRAVARVGPVSVAIDASLTSFQFYSKGVYYDESCNSDNLNHAVLAVGYGIQKGNKHWIIKNSWGENWGNKGYILMARNKNNACGIANLASFPKM

This data set relates to T1, Link N (human Link N, DHLSDNYTLDHDRAIH).
Take MMP 3: the “peak area intensity of the 1922 Da Link 1-16 peptide (mass spectrometry) after proteinase digest” value (from here on “peak area intensity”) is “un-affected by MMPs 3, 7, 12, 13, ADAMTS 4,5, HTRA1, and cathepsins B, and L”.

In the case of ADAMTS 5, the “peak area intensity” value is “un-affected by MMPs 3, 7, 12, 13, ADAMTS 4,5, HTRA1, and cathepsins B, and L”.

Take HTRA1: the “peak area intensity” value was “un-affected by MMPs 3, 7, 12, 13, ADAMTS 4,5, HTRA1, and cathepsins B, and L”.

As to cathepsin B, the “peak area intensity” value is “un-affected by MMPs 3, 7, 12, 13, ADAMTS 4,5, HTRA1, and cathepsins B, and L”.

Turning to MMP 13, the “peak area intensity” value is “un-affected by MMPs 3, 7, 12, 13, ADAMTS 4,5, HTRA1, and cathepsins B, and L”.

Regarding MMP 12, the “peak area intensity” value was “un-affected by MMPs 3, 7, 12, 13, ADAMTS 4,5, HTRA1, and cathepsins B, and L”.

Turning to cathepsin L, the “peak area intensity” value was “un-affected by MMPs 3, 7, 12, 13, ADAMTS 4,5, HTRA1, and cathepsins B, and L”.

For the molecule B1, the “peak area intensity” value is “un-affected by MMPs 3, 7, 12, 13, ADAMTS 4,5, HTRA1, and cathepsins B, and L”.

In the case of B2, the “peak area intensity” value is “un-affected by MMPs 3, 7, 12, 13, ADAMTS 4,5, HTRA1, and cathepsins B, and L”.

In the case of B3, the “peak area intensity” value is “significantly diminished already after 30 minutes and was hardly detectable at 2 and 24 hours incubation with cathepsin K”.

The record behind these values is patent publication US20210079040.
